Results published in US20250376519A1 (JIANGSU HENGRUI PHARMACEUTICALS, published 2025).
Numbering of substitutions follows the chain as printed.

T1: human DLL3 on cells (human, UniProt Q9NYJ7 27-618)
T1 construct: Endogenous on H1184 and SHP77; Cell line is named under assay; also called H1184; DLL3/H82
T1 sequence: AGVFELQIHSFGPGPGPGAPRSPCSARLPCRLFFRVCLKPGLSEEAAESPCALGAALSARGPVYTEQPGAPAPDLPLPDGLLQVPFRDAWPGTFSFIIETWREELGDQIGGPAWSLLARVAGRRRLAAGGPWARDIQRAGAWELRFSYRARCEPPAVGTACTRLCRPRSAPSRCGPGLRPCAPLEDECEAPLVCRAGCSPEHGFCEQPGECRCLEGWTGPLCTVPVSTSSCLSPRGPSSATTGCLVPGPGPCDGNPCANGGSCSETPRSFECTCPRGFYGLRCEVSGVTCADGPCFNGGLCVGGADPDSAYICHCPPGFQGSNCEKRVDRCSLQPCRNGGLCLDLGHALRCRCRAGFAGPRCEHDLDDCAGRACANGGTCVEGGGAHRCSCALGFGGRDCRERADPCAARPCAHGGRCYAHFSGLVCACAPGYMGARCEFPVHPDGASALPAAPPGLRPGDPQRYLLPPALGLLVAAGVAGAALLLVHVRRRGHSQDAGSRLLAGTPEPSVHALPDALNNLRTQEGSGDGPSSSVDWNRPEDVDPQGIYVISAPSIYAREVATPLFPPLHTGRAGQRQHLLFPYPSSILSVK

T2: human DLL3 (ACRO, DLL3-H52H4) (human, UniProt Q9NYJ7 27-492)
T2 construct: Bought
T2 sequence: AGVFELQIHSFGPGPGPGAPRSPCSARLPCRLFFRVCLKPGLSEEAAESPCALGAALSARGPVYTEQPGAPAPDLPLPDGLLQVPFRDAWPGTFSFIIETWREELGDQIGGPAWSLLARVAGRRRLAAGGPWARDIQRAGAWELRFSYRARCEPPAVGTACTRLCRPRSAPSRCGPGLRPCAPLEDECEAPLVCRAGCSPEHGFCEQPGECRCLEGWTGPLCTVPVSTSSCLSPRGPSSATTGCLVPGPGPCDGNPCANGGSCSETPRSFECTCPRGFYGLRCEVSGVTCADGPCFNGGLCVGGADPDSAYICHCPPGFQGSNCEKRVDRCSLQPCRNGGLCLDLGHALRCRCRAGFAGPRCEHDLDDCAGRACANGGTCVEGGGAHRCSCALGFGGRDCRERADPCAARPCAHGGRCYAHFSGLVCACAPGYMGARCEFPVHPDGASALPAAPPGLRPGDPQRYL

B1: hu30L3H7 (antibody, human IgG1, kappa)
heavy: not shown
light: DIVMTQSPKSLAVSLGERATINCKASENVGYVSWYQQKPGQSPKLLIYGASNRYTGVPDRFSGSGSATDFTLTISSLQAEDVAVYHCGQSYSYPLTFGQGTKLEIKRTVAAPSVFIFPPSDEQLKSGTASVVCLLNNFYPREAKVQWKVDNALQSGNSQESVTEQDSKDSTYSLSSTLTLSKADYEKHKVYACEVTHQGLSSPVTKSFNRGEC
B2: hu6L2H2 (antibody, human IgG1, kappa, V domains shown)
VH: EVQLVQSGAEVKKPGASVKVSCKASGYTFTDYYMNWVRQAPGQRLEWMGIINPYSGVTIYNHKFKGRVTLTVDKSANTAYMELSSLRSEDTAVYYCARQDSLLDYAMDYWGQGTTVTVSS
VL: DIQMTQSPSSLSASVGDRVTITCHASQGISGNMGWLQQKPGKAPKGLIYHGANLEDGVPSRFSGSGSGADYTLTISSLQPEDFATYYCVQYAQFPYTFGGGTKVEIKR
B3: hu6L2H6 (antibody, human IgG1, kappa, V domains shown)
VH: EVQLVQSGSELKKPGASVKVSCKASGYTFTDYYMNWVRQAPGQGLEWMGIINPYSGVTIYNHKFKGRFVLSVDKSSNTAYLQISSLKAEDTAVYYCARQDSLLDYAMDYWGQGTTVTVSS
VL: B2 VL
B4: hu6L2H12 (antibody, human IgG1, kappa, V domains shown)
VH: B3 VH with V69A
VL: B2 VL
B5: hu6L4H11 (antibody, human IgG1, kappa, V domains shown)
VH: B3 VH with R38K
VL: B2 VL with T85D
B6: hu6L4H4 (antibody, human IgG1, kappa, V domains shown)
VH: B2 VH with Q43K
VL: B2 VL with T85D
B7: hu6L2H5 (antibody, human IgG1, kappa, V domains shown)
VH: B3 VH with S76V, N77S
VL: B2 VL
B8: hu6L2H13 (antibody, human IgG1, kappa, V domains shown)
VH: B3 VH with R38K, V69A
VL: B2 VL
B9: hu6L4H12 (antibody, human IgG1, kappa, V domains shown)
VH: B3 VH with V69A
VL: B2 VL with T85D
B10: hu6L2H11 (antibody, human IgG1, kappa, V domains shown)
VH: B3 VH with R38K
VL: B2 VL

target: T1, human DLL3 on cells; experiment: flow cytometry, DLL3/H82 cells; parameters: key to Emax: geometric mean fluorescence intensity (flow cytometry)
Procedure: (§1) The plates were centrifuged at 300 g for 5 min, and the supernatant was removed. Different concentrations of test antibodies were added at 100 μL/well. The plates were incubated in the dark in a refrigerator at 4° C. for 1 h. After 3 centrifugal washes at 300 g, working concentrations of APC anti-human IgG Fc (BioLegend, 410712) or PE F(ab′)2-goat anti-human IgG (invitrogen, H10104) were added. The plates were incubated in the dark in a refrigerator at 4° C. for 40 min. After 3 centrifugal washes at 300 g, the geometric mean fluorescence intensity was measured on an Invitrogen flow cytometer, and the EC50 values for the binding of the antibodies to DLL3-expressing cells were calculated.

| EC50 | Emax | Binder |
| --- | --- | --- |
| 0.43 nM | 5450 | B1 |

target: T1, human DLL3 on cells; experiment: flow cytometry, H1184 cells
Procedure: as §1

| EC50 | Emax | Binder |
| --- | --- | --- |
| 0.06 nM | 2190 | B2 |
| 0.05 nM | 2420 | B3 |
| 0.1 nM | 2140 | B4 |
| 0.07 nM | 2190 | B5 |
| 0.06 nM | 2310 | B6 |
| 0.06 nM | 2490 | B7 |
| 0.1 nM | 2100 | B8 |
| 0.05 nM | 2130 | B9 |
| 0.04 nM | 1960 | B10 |

target: T2, human DLL3 (ACRO, DLL3-H52H4); experiment: SPR Biacore 8K, Ab captured on Protein A
Procedure, shortened: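 Antibodies captured on a Protein A chip for 18 s; DLL3 or CD3D&3E antigen flowed 180 s, then 600 s dissociation, with real-time detection. Regeneration used 10 mM glycine-HCl pH 1.5 between cycles. Kinetics were obtained by 1:1 model fitting.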

| Kd | koff | kon | Binder |
| --- | --- | --- | --- |
| 0.815 nM | 0.000853 s⁻¹ | 1.05e+06 M⁻¹ s⁻¹ | B1 |
| 1.64 nM | 0.00116 s⁻¹ | 704000 M⁻¹ s⁻¹ | B2 |
| 0.877 nM | 0.000756 s⁻¹ | 863000 M⁻¹ s⁻¹ | B3 |
| 0.461 nM | 0.000913 s⁻¹ | 1.98e+06 M⁻¹ s⁻¹ | B4 |
| 0.314 nM | 0.000672 s⁻¹ | 2.14e+06 M⁻¹ s⁻¹ | B5 |
| 1.45 nM | 0.00108 s⁻¹ | 743000 M⁻¹ s⁻¹ | B6 |
| 0.969 nM | 0.000784 s⁻¹ | 810000 M⁻¹ s⁻¹ | B7 |
| 0.382 nM | 0.000803 s⁻¹ | 2.1e+06 M⁻¹ s⁻¹ | B8 |
| 0.391 nM | 0.000805 s⁻¹ | 2.06e+06 M⁻¹ s⁻¹ | B9 |
| 0.363 nM | 0.000749 s⁻¹ | 2.06e+06 M⁻¹ s⁻¹ | B10 |
